Reference: article PMC11731451, “Phosphorylation of Lamin A/C regulates the structural integrity of the nuclear envelope” (The Journal of Biological Chemistry, 2024)

Molecular target: T1, GST-tagged Lamin A-C178 (250-428 aa), wild type (UniProt P02545 250-428)
T1 construct: Lamin A, fragment C178, residues 250-428; also called Lamin-A-C178-WT
T1 sequence (looked up): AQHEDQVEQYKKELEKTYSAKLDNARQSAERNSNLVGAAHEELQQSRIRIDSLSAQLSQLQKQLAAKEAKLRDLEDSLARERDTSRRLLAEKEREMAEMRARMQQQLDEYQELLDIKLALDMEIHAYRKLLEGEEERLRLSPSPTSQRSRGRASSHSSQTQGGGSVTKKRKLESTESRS
Test: pull-down; 10 ug GST-tagged protein on glutathione agarose beads incubated with 10 ug soluble recombinant protein; PBS with 0.1% Triton X-100, 4 C, 4 h; three washes; SDS-PAGE with Coomassie staining; salt concentration also varied (Fig. S4B)
Conditions: both partners purified

B1: His-tagged Lamin A-N125 (1-125 aa), wild type (domain or fragment, UniProt P02545 1-125, looked up)
chain: METPSQRRATRSGAQASSTPLSPTRITRLQEKEDLQELNDRLAVYIDRVRSLETENAGLRLRITESEEVVSREVSGIKAAYEAELGDARKTLDSVAKERARLQLELSKVREEFKELKARNTKKEG
notes: The cell work is in human HeLa cells; also called Lamin A-N125-WT; source: E. coli BL21, purified (Ni-NTA agarose, dialysed)
- binding result: binds
